According to patent US20250304643A1 (BAINAN BIOTECH, published 2025):
*1 amine or outer side, *2 acyl side, *3 side chain or, on linkers, in order; H or OH if unused. Where no end group is shown, it is not given here. Side-chain parts run from the residue outwards. [ ]: non-standard residue; d: D form. The star is where a group is joined. γGlu = O=C(O)[C@H](CCC(=O)[*:2])N[*:1]; HOOC(CH2)8CO = O=C(O)CCCCCCCCC(=O)*; Palmitoyl = CCCCCCCCCCCCCCCC(=O)*; Decanoyl = CCCCCCCCCC(=O)*; Aib = CC(C)(N)C(=O)O

B1: Compound no. 3 (peptide)
peptide: Decanoyl-HADGTFISDYSTILDNLAAKDFINWLIQTKITKNDWKHNITQ
B2: Compound no. 4 (peptide)
peptide: Palmitoyl-HADGTFISDYSTILDNLAARDFINWLIQTKITD
B3: Compound no. 7 (peptide)
peptide: Palmitoyl-H[Aib]DGTFISDYSTILDNLAARDFIEWLIQTKITK-OH
SMILES: CCCCCCCCCCCCCCCC(=O)N[C@@H](Cc1c[nH]cn1)C(=O)NC(C)(C)C(=O)N[C@@H](CC(=O)O)C(=O)NCC(=O)N[C@H](C(=O)N[C@@H](Cc1ccccc1)C(=O)N[C@H](C(=O)N[C@@H](CO)C(=O)N[C@@H](CC(=O)O)C(=O)N[C@@H](Cc1ccc(O)cc1)C(=O)N[C@@H](CO)C(=O)N[C@H](C(=O)N[C@H](C(=O)N[C@@H](CC(C)C)C(=O)N[C@@H](CC(=O)O)C(=O)N[C@@H](CC(N)=O)C(=O)N[C@@H](CC(C)C)C(=O)N[C@@H](C)C(=O)N[C@@H](C)C(=O)N[C@@H](CCCNC(=N)N)C(=O)N[C@@H](CC(=O)O)C(=O)N[C@@H](Cc1ccccc1)C(=O)N[C@H](C(=O)N[C@@H](CCC(=O)O)C(=O)N[C@@H](Cc1c[nH]c2ccccc12)C(=O)N[C@@H](CC(C)C)C(=O)N[C@H](C(=O)N[C@@H](CCC(N)=O)C(=O)N[C@H](C(=O)N[C@@H](CCCCN)C(=O)N[C@H](C(=O)N[C@H](C(=O)N[C@@H](CCCCN)C(=O)O)[C@@H](C)O)[C@@H](C)CC)[C@@H](C)O)[C@@H](C)CC)[C@@H](C)CC)[C@@H](C)CC)[C@@H](C)O)[C@@H](C)CC)[C@@H](C)O
B4: Compound no. 8 (peptide)
peptide: Palmitoyl-H[Aib]DGTFISDYSTILDNLAARDFIEWLIQTKIT-OH
SMILES: CCCCCCCCCCCCCCCC(=O)N[C@@H](Cc1c[nH]cn1)C(=O)NC(C)(C)C(=O)N[C@@H](CC(=O)O)C(=O)NCC(=O)N[C@H](C(=O)N[C@@H](Cc1ccccc1)C(=O)N[C@H](C(=O)N[C@@H](CO)C(=O)N[C@@H](CC(=O)O)C(=O)N[C@@H](Cc1ccc(O)cc1)C(=O)N[C@@H](CO)C(=O)N[C@H](C(=O)N[C@H](C(=O)N[C@@H](CC(C)C)C(=O)N[C@@H](CC(=O)O)C(=O)N[C@@H](CC(N)=O)C(=O)N[C@@H](CC(C)C)C(=O)N[C@@H](C)C(=O)N[C@@H](C)C(=O)N[C@@H](CCCNC(=N)N)C(=O)N[C@@H](CC(=O)O)C(=O)N[C@@H](Cc1ccccc1)C(=O)N[C@H](C(=O)N[C@@H](CCC(=O)O)C(=O)N[C@@H](Cc1c[nH]c2ccccc12)C(=O)N[C@@H](CC(C)C)C(=O)N[C@H](C(=O)N[C@@H](CCC(N)=O)C(=O)N[C@H](C(=O)N[C@@H](CCCCN)C(=O)N[C@H](C(=O)N[C@H](C(=O)O)[C@@H](C)O)[C@@H](C)CC)[C@@H](C)O)[C@@H](C)CC)[C@@H](C)CC)[C@@H](C)CC)[C@@H](C)O)[C@@H](C)CC)[C@@H](C)O
B5: Compound no. 12 (peptide)
peptide: H-H[Aib]DGTFISDYSK([γGlu-Palmitoyl])ILDNLAARDFINWLIQTKITK-OH
SMILES: CCCCCCCCCCCCCCCC(=O)N[C@@H](CCC(=O)NCCCC[C@H](NC(=O)[C@H](CO)NC(=O)[C@H](Cc1ccc(O)cc1)NC(=O)[C@H](CC(=O)O)NC(=O)[C@H](CO)NC(=O)[C@@H](NC(=O)[C@H](Cc1ccccc1)NC(=O)[C@@H](NC(=O)CNC(=O)[C@H](CC(=O)O)NC(=O)C(C)(C)NC(=O)[C@@H](N)Cc1c[nH]cn1)[C@@H](C)O)[C@@H](C)CC)C(=O)N[C@H](C(=O)N[C@@H](CC(C)C)C(=O)N[C@@H](CC(=O)O)C(=O)N[C@@H](CC(N)=O)C(=O)N[C@@H](CC(C)C)C(=O)N[C@@H](C)C(=O)N[C@@H](C)C(=O)N[C@@H](CCCNC(=N)N)C(=O)N[C@@H](CC(=O)O)C(=O)N[C@@H](Cc1ccccc1)C(=O)N[C@H](C(=O)N[C@@H](CC(N)=O)C(=O)N[C@@H](Cc1c[nH]c2ccccc12)C(=O)N[C@@H](CC(C)C)C(=O)N[C@H](C(=O)N[C@@H](CCC(N)=O)C(=O)N[C@H](C(=O)N[C@@H](CCCCN)C(=O)N[C@H](C(=O)N[C@H](C(=O)N[C@@H](CCCCN)C(=O)O)[C@@H](C)O)[C@@H](C)CC)[C@@H](C)O)[C@@H](C)CC)[C@@H](C)CC)[C@@H](C)CC)C(=O)O
B6: Compound no. 18 (peptide)
peptide: {HOOC(CH2)8CO}-H[Aib]DGTFISDYST[Aib]LDNLAARDFINWLIQTKITK-OH
SMILES: CC[C@H](C)[C@H](NC(=O)[C@H](Cc1ccccc1)NC(=O)[C@H](CC(=O)O)NC(=O)[C@H](CCCNC(=N)N)NC(=O)[C@H](C)NC(=O)[C@H](C)NC(=O)[C@H](CC(C)C)NC(=O)[C@H](CC(N)=O)NC(=O)[C@H](CC(=O)O)NC(=O)[C@H](CC(C)C)NC(=O)C(C)(C)NC(=O)[C@@H](NC(=O)[C@H](CO)NC(=O)[C@H](Cc1ccc(O)cc1)NC(=O)[C@H](CC(=O)O)NC(=O)[C@H](CO)NC(=O)[C@@H](NC(=O)[C@H](Cc1ccccc1)NC(=O)[C@@H](NC(=O)CNC(=O)[C@H](CC(=O)O)NC(=O)C(C)(C)NC(=O)[C@H](Cc1c[nH]cn1)NC(=O)CCCCCCCCC(=O)O)[C@@H](C)O)[C@@H](C)CC)[C@@H](C)O)C(=O)N[C@@H](CC(N)=O)C(=O)N[C@@H](Cc1c[nH]c2ccccc12)C(=O)N[C@@H](CC(C)C)C(=O)N[C@H](C(=O)N[C@@H](CCC(N)=O)C(=O)N[C@H](C(=O)N[C@@H](CCCCN)C(=O)N[C@H](C(=O)N[C@H](C(=O)N[C@@H](CCCCN)C(=O)O)[C@@H](C)O)[C@@H](C)CC)[C@@H](C)O)[C@@H](C)CC
B7: Compound no. 35 (peptide)
peptide: H[Aib]DGTFISDYSK([γGlu-Palmitoyl])[Aib]LDNLAARDFINWLIQTKITK-OH
modifications: N-terminus assumed
SMILES: CCCCCCCCCCCCCCCC(=O)N[C@@H](CCC(=O)NCCCC[C@H](NC(=O)[C@H](CO)NC(=O)[C@H](Cc1ccc(O)cc1)NC(=O)[C@H](CC(=O)O)NC(=O)[C@H](CO)NC(=O)[C@@H](NC(=O)[C@H](Cc1ccccc1)NC(=O)[C@@H](NC(=O)CNC(=O)[C@H](CC(=O)O)NC(=O)C(C)(C)NC(=O)[C@@H](N)Cc1c[nH]cn1)[C@@H](C)O)[C@@H](C)CC)C(=O)NC(C)(C)C(=O)N[C@@H](CC(C)C)C(=O)N[C@@H](CC(=O)O)C(=O)N[C@@H](CC(N)=O)C(=O)N[C@@H](CC(C)C)C(=O)N[C@@H](C)C(=O)N[C@@H](C)C(=O)N[C@@H](CCCNC(=N)N)C(=O)N[C@@H](CC(=O)O)C(=O)N[C@@H](Cc1ccccc1)C(=O)N[C@H](C(=O)N[C@@H](CC(N)=O)C(=O)N[C@@H](Cc1c[nH]c2ccccc12)C(=O)N[C@@H](CC(C)C)C(=O)N[C@H](C(=O)N[C@@H](CCC(N)=O)C(=O)N[C@H](C(=O)N[C@@H](CCCCN)C(=O)N[C@H](C(=O)N[C@H](C(=O)N[C@@H](CCCCN)C(=O)O)[C@@H](C)O)[C@@H](C)CC)[C@@H](C)O)[C@@H](C)CC)[C@@H](C)CC)C(=O)O
B8: Compound no. 36 (peptide)
peptide: Ac-H[Aib]DGTFISDYSK([γGlu-Palmitoyl])[Aib]LDNLAARDFINWLIQTKITK-OH
SMILES: CCCCCCCCCCCCCCCC(=O)N[C@@H](CCC(=O)NCCCC[C@H](NC(=O)[C@H](CO)NC(=O)[C@H](Cc1ccc(O)cc1)NC(=O)[C@H](CC(=O)O)NC(=O)[C@H](CO)NC(=O)[C@@H](NC(=O)[C@H](Cc1ccccc1)NC(=O)[C@@H](NC(=O)CNC(=O)[C@H](CC(=O)O)NC(=O)C(C)(C)NC(=O)[C@H](Cc1c[nH]cn1)NC(C)=O)[C@@H](C)O)[C@@H](C)CC)C(=O)NC(C)(C)C(=O)N[C@@H](CC(C)C)C(=O)N[C@@H](CC(=O)O)C(=O)N[C@@H](CC(N)=O)C(=O)N[C@@H](CC(C)C)C(=O)N[C@@H](C)C(=O)N[C@@H](C)C(=O)N[C@@H](CCCNC(=N)N)C(=O)N[C@@H](CC(=O)O)C(=O)N[C@@H](Cc1ccccc1)C(=O)N[C@H](C(=O)N[C@@H](CC(N)=O)C(=O)N[C@@H](Cc1c[nH]c2ccccc12)C(=O)N[C@@H](CC(C)C)C(=O)N[C@H](C(=O)N[C@@H](CCC(N)=O)C(=O)N[C@H](C(=O)N[C@@H](CCCCN)C(=O)N[C@H](C(=O)N[C@H](C(=O)N[C@@H](CCCCN)C(=O)O)[C@@H](C)O)[C@@H](C)CC)[C@@H](C)O)[C@@H](C)CC)[C@@H](C)CC)C(=O)O
B9: Compound no. 37 (peptide)
peptide: H[Aib]DGTFISDYK([γGlu-Palmitoyl])T[Aib]LDNLAARDFINWLIQTKITKNDWKHNITQ-OH
B10: Compound no. 45 (peptide)
peptide: Palmitoyl-HADGTFISDYSTILDNLAAKDFINWLIQTKITK
B11: Compound no. 1 (peptide)
peptide: Palmitoyl-HADGTFISDYSTILDNLAARDFINWLIQTKITD

The binders below were run against T1, human glucose-dependent insulinotropic polypeptide receptor (human, UniProt P48546 22-466) (assay: cell-based or functional assay).
T1 sequence (looked up): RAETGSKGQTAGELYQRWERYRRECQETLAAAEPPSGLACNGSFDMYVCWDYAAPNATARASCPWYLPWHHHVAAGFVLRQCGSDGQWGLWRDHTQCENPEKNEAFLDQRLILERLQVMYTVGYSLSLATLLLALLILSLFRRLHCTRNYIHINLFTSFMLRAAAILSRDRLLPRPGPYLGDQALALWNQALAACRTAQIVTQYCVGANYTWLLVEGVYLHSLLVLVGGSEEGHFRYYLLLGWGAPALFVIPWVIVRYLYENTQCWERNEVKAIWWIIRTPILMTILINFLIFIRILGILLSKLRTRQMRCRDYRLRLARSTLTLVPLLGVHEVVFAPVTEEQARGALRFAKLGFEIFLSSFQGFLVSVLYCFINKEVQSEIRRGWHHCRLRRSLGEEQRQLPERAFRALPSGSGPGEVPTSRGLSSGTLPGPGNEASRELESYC
In the case of B1, the “Efficacy GIPR” value is reported as 76%. With B2 the “Efficacy GIPR” value was 96%. B3 was tested, and the “Efficacy GIPR” value was 114%. For B4, the “Efficacy GIPR” value was 108%. B5 was tested, and the “Efficacy GIPR” value was 107%. For B6, the “Efficacy GIPR” value was 77%. In the case of B7, the “Efficacy GIPR” value is reported as 106%. B8 was tested, and the “EC50 (nM) GIPR” value was 1 nM and the “Efficacy GIPR” value was 92%. With B9 the “Efficacy GIPR” value was 95%. B10 was tested, and the “Efficacy GIPR” value was 91%. B11 was tested, and the “Efficacy GIPR” value was 96%.
